Assay results published in PMC13649712, “Role of PER-WDR5 interactions in the mammalian circadian clock” (Nature Communications, 2026).

B1: mouse CRY1 1-496 (PHR) (domain or fragment)
chain: MGVNAVHWFRKGLRLHDNPALKECIQGADTIRCVYILDPWFAGSSNVGINRWRFLLQCLEDLDANLRKLNSRLFVIRGQPADVFPRLFKEWNITKLSIEYDSEPFGKERDAAIKKLATEAGVEVIVRISHTLYDLDKIIELNGGQPPLTYKRFQTLVSKMEPLEMPADTITSDVIGKCMTPLSDDHDEKYGVPSLEELGFDTDGLSSAVWPGGETEALTRLERHLERKAWVANFERPRMNANSLLASPTGLSPYLRFGCLSCRLFYFKLTDLYKKVKKNSSPPLSLYGQLLWREFFYTAATNNPRFDKMEGNPICVQIPWDKNPEALAKWAEGRTGFPWIDAIMTQLRQEGWIHHLARHAVACFLTRGDLWISWEEGMKVFEELLLDADWSINAGSWMWLSCSSFFQQFFHCYCPVGFGRRTDPNGDYIRRYLPVLRGFPAKYIYDPWNAPEGIQKVAKCLIGVNYPKPMVNHAEASRLNIERMKQIYQQLSRYRG
notes: pCoofy27; tag-free after cleavage; also called CRY1-PHR
B2: mouse CRY2-PHR (1-512) (domain or fragment)
chain: MAAAAVVAATVPAQSMGADGASSVHWFRKGLRLHDNPALLAAVRGARCVRCVYILDPWFAASSSVGINRWRFLLQSLEDLDTSLRKLNSRLFVVRGQPADVFPRLFKEWGVTRLTFEYDSEPFGKERDAAIMKMAKEAGVEVVTENSHTLYDLDRIIELNGQKPPLTYKRFQALISRMELPKKPAVAVSSQQMESCRAEIQENHDDTYGVPSLEELGFPTEGLGPAVWQGGETEALARLDKHLERKAWVANYERPRMNANSLLASPTGLSPYLRFGCLSCRLFYYRLWDLYKKVKRNSTPPLSLFGQLLWREFFYTAATNNPRFDRMEGNPICIQIPWDRNPEALAKWAEGKTGFPWIDAIMTQLRQEGWIHHLARHAVACFLTRGDLWVSWESGVRVFDELLLDADFSVNAGSWMWLSCSAFFQQFFHCYCPVGFGRRTDPSGDYIRRYLPKLKGFPSRYIYEPWNAPESVQKAAKCIIGVDYPRPIVNHAETSRLNIERMKQIYQQLSRY
notes: Cryptochrome-2 (CRY2), mouse, photolyase homology region, residues 1-512; pCoofy27; tag-free after cleavage; also called CRY2 1-512

Target: preformed PER1 1013-1291/WDR5 22-334 complex (mouse, UniProt O35973 1013-1291; P61965 22-334)
Assay: SEC; PER1 1013-1291, CRY1 1-496 or CRY2 1-512 and WDR5 22-334: equimolar mixture (60 min, 4 °C) or PER1/WDR5 complex pre-formed overnight and then equimolar CRY added for 60 min; dimeric complexes run for comparison; S200 10/300; 25 mM HEPES pH 7.5, 300 mM NaCl, 5% glycerol, 1 mM DTT
Settings: both partners purified

Row | Binder | binding result
1 | B1 | binds
2 | B2 | binds
